# From patent US12226490B2, “Anti-ROR1 antibody conjugates, compositions comprising anti ROR1 antibody conjugates, and methods of making and using anti-ROR1 antibody conjugates preliminary class” (Sutro Biopharma, Inc., priority 2022, dated 2025)
# Positions count from the first letter of the chain named.
# B1: SRP2196-A09 (antibody, V domains shown)
# VH: EVQLVESGGGLVQPGGSLRLSCAASGFNITGYYIHWVRQAPGKGLEWVGQISPNSGATHYADSVKGRFTISADTSKNTAYLQMNSLRAEDTAVYYCARDSRRYIRSWDYWGQGTLVTVSS
# VL: QAVVTQESALTTSPGETVTLTCRSSTGAVTTSNYANWVQEKPDHLFTGLIGGTNKRAPGVPARFSGSLIGDKAALTITGAQTEDEAIYFCALWYSNLWVFGGGTKLTVL
# B2: SRP2196-C01 (antibody, V domains shown)
# VH: B1 VH with T30I, Q50S, S52T, N54L, H59S, Y60K
# VL: B1 VL
# B3: SRP2196-B02 (antibody, V domains shown)
# VH: B1 VH with G31Q, Q50Y, A57Q, H59Y, Y60D, I104V
# VL: B1 VL
# B4: SRP2196-C04 (antibody, V domains shown)
# VH: B1 VH with Q50F, S52A, N54L, A57S, Y60N, D99E, I104V, R105N, S106P
# VL: B1 VL
# B5: SRP2196-B03 (antibody, V domains shown)
# VH: B1 VH with V12A, Q50Y, I104V, S106P, W107F
# VL: B1 VL
# B6: SRP2196-B04 (antibody, V domains shown)
# VH: B1 VH with G31E, Q50Y, H59Y, Y60Q, I104V, S106G
# VL: B1 VL
# B7: SRP2196-A10 (antibody, V domains shown)
# VH: B1 VH with Q50Y, T74I, Y94H, I104V
# VL: B1 VL
# B8: SRP2196-B06 (antibody, V domains shown)
# VH: B1 VH with A57S, H59Y, Y60S, I104V, R105L
# VL: B1 VL
# B9: SRP2196-A11 (antibody, V domains shown)
# VH: B1 VH with A57T, H59Y, Y60D, I104V, S106G
# VL: B1 VL
# B10: SRP2196-B08 (antibody, V domains shown)
# VH: B1 VH with A57Y, H59Y, Y60L, I104V, S106G
# VL: B1 VL
# B11: SRP2196-B10 (antibody, V domains shown)
# VH: B1 VH with Q50S, S52T, N54L, H59S, Y60K
# VL: B1 VL
# B12: SRP2196-B11 (antibody, V domains shown)
# VH: B1 VH with K43R, A57Y, H59Y
# VL: B1 VL
# B13: SRP2196-B09 (antibody, V domains shown)
# VH: B1 VH with G15E, G31E, Q50Y, A57S, H59Y, I104V
# VL: B1 VL
# B14: SRP2196-C02 (antibody, V domains shown)
# VH: B1 VH with Y33H, Q50F, A57W, H59Y, Y60S, I104V, S106P, W107F
# VL: B1 VL
# B15: SRP2196-C03 (antibody, V domains shown)
# VH: B1 VH with A57S, H59Y, Y60S, N84S, I104V, R105L
# VL: B1 VL
# B16: SRP2196-B01 (antibody, V domains shown)
# VH: B1 VH with A57Y, H59Y, A79T, I104V
# VL: B1 VL
# Target: T1, human ROR1-Fz (Homo sapiens, UniProt Q01973)
# T1 construct: Frizzled (Fz, residues 165-305); HIS6 (C); purchased Acro Biosystems; host or cells: HEK293
# T1 sequence (Q01973 165-305): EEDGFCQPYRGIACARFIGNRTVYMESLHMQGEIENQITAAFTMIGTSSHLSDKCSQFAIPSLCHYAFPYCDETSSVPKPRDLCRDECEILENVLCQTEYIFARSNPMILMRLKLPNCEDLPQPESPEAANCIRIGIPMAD
# Test: Biacore off-rate and kinetic analysis, ROR1 frizzled domain
# Assay type: binding
# Conditions: Table 11 (SP34 light chain)
# Protocol: Anti-Fc polyclonal antibodies were immobilized onto a CM5 chip (GE Life Sciences) using amine coupling chemistry (from Amine Coupling Kit, GE Life Sciences). The immobilization steps were carried out at a flow rate of 25 μL/min in 1×HBS-EP+ buffer (GE Life Sciences; 10× Stock diluted before use). The sensor surfaces were activated for 7 min with a mixture of NHS (0.05 M) and EDC (0.2 M). The Anti-Fc antibodies were injected over all 4 flow cells at a concentration of 25 ug/ml in 10 mM sodium acetate, pH 4.5, for 7 min. Ethanolamine (1 M, pH 8.5) was injected for 7 min to block any remaining activated groups. An average of 12,000 response units (RU) of capture antibody was immobilized on each flow cell.
# Off-rate and kinetic binding experiments were performed at 25° C. using 1×HBS-EP+ buffer. Test and control antibodies were injected over the anti-Fc surface at concentrations of 5-10 μg/mL for 12 seconds at a flow rate of 10 μL/min on flow cells 2, 3 and 4, followed by a buffer wash for 30 seconds at the same flow rate. Kinetic characterization of antibody samples was carried out with a range of antigen concentrations from 1-100 nM and 1 injection of 0 nM antigen (for example, 100, 50, 25, 6.25, 1.56 and 0 nM). After capturing ligand (antibody) on the anti-Fc surface, the analyte (hROR1, Fz or Kr domains, Acro Biosystems, Delaware) was bound for 180 seconds, followed by a 600 second dissociation phase at a flow rate of 50 μL/min. Between each ligand capture and analyte binding cycle, regeneration was carried out using 2 injections of 10 mM Glycine pH 2.0 for 30 seconds at 30 μL/min, followed by a 30 second buffer wash step.
# The data was fit with the Biacore T200 Evaluation software, using a 1-1 Langmuir binding model. KD (affinity, nM) was determined as a ratio of the kinetic rate constants calculated from the fits of the association and dissociation phases.
# For anti-CD3-LC-containing IgGs that had detectable ROR1-binding in ELISA (1944-A07 and 1987-C05 variants), those antibodies were further tested for binding by surface plasmon resonance (SPR). Binding kinetics were assessed to the ROR1-frizzled domain (hROR1-Fz) or the ROR1-extracellular domain (hROR1) for 1944-A07 and 1987-C05 variants, respectively. Briefly, anti-ROR1 antibodies were captured via anti-human Fc polyclonal antibodies immobilized to a CM5 chip, and ROR1 recombinant proteins were flowed across the surface to assess binding kinetics. hROR1 or hROR1-Fz domain (Acro Biosystems, Delaware) binding was tested at 100, 50, 25, 6.25, 1.5625 nM. The data was fit with the Biacore™ T200 Evaluation software, using a 1-1 Langmuir binding model. KD (affinity, nM) was determined as a ratio of the kinetic rate constants calculated from the fits of the association and dissociation phases.
Biacore human ROR1-Fz ka [M⁻¹ s⁻¹],Biacore human ROR1-Fz kd [s⁻¹],Molecule
150000,0.000568,B1
125000,0.000457,B2
163000,0.000227,B3
131000,0.000704,B4
124000,0.000945,B5
127000,0.000352,B6
172000,0.000479,B7
142000,0.000423,B8
191000,0.000792,B9
156000,0.000488,B10
128000,0.000334,B11
137000,0.000597,B12
130000,0.000427,B13
119000,0.00036,B14
143000,0.000461,B15
131000,0.000401,B16

# Tested on: not listed separately
# Test: Differential scanning fluorimetry (protein thermal shift; TM1 Fc, TM2 Fab)
# Assay type: physicochemical
# Conditions: melting temperature of the Fab domain; Table 11
# Protocol: A protein thermal shift assay was carried out by mixing the protein to be assayed with an environmentally sensitive dye (SYPRO Orange, Life Technologies Cat #S-6650) in a phosphate buffered solution (PBS), and monitoring the fluorescence of the mixture in real time as it underwent controlled thermal denaturation. Protein solutions between 0.2-2 mg/mL were mixed at a 1-1 volumetric ratio with a 1-500 PBS-diluted solution of SYPRO Orange (SYPRO Orange stock dye is 5000× in DMSO). 10 μL aliquots of the protein-dye mixture were dispensed in quadruplicate in a 384-well microplate (Bio-Rad Cat #MSP-3852), and the plate was sealed with an optically clear sealing film (Bio-Rad Cat #MSB-1001) and placed in a 384-well plate real-time thermocycler (Bio-Rad CFX384 Real Time System). The protein-dye mixture was heated from 25° C. to 95° C., at increments of 0.1° C. per cycle (˜1.5° C. per minute), allowing 3 seconds of equilibration at each temperature before taking a fluorescence measurement. At the end of the experiment, the transition melting temperatures (TM1 and TM2) were determined using the Bio-Rad CFX manager software. TM1 represents the melting temperature of the Fc domain. TM2 represents the melting temperature of the Fab domain.
# For the thermal stability of an antibody, the first melting peak (Tm1) coincides with the unfolding of the CH2 domain (FC stability), while the second melting peak (Tm2) occurs upon unfolding of the Fab domain.
row,Molecule,TM2 [°C]
1,B1,75
2,B2,70
3,B3,69
4,B4,70
5,B5,71
6,B6,72
7,B7,68
8,B8,70
9,B9,73
10,B10,75
11,B11,70
12,B12,74
13,B13,72
14,B14,67
15,B15,69
16,B16,75
